# According to patent EP4741426A1 (Leto Laboratories Co., Ltd, dated 2026):
# B1: S-unit molecule (PM619) (ligand)
# chain: APTSSSTKKTQLQLEHLLLDLQMILNGIQSMHIDATLYTESDVHPSCKVTAMKCFLLELQVISLESGDASIHDTVENLIILANNSLSSNGNVTESGCKECEELEEKNIVEFLNRFITFAQSIISTLT
# notes: also called IL-2/15 chimera; modified IL-2 molecule
# Molecular target: T1, Fc-fused CD215 fragment
# T1 construct: also called CD215 fragment in L-unit (fused with hIgG4Fc); CD215 fragment fused with Fc
# Assay: sandwich ELISA of the intact complex in mouse serum: one antibody captures the S-unit, the other detects the Fc portion
# T1 sequence (chain, as listed by the source limits assumed): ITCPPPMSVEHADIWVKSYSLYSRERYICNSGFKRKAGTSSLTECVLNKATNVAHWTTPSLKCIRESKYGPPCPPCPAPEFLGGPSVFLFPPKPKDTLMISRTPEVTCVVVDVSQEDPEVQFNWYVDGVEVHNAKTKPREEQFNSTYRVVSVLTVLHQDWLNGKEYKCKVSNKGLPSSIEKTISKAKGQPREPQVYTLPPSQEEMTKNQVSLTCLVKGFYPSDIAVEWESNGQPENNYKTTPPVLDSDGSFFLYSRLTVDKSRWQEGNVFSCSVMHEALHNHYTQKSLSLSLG
binder,measurement,value
B1,binding result,binds
